Consider 3 molecules from patent US20250129173A1 (SHENYANG SUNSHINE PHARMACEUTICAL, published 2025).

Where “and” joins values, the source holds several entries; their conditions need not be identical. Identical values can stand only once.

Experiment [1] concerns the target T1, recombinant human PRLR-ECD protein (Acro, item No. PRR-H52Ha) (human, UniProt P16471 25-234).
T1 construct: Bought protein; also called PRLR-His
T1 sequence: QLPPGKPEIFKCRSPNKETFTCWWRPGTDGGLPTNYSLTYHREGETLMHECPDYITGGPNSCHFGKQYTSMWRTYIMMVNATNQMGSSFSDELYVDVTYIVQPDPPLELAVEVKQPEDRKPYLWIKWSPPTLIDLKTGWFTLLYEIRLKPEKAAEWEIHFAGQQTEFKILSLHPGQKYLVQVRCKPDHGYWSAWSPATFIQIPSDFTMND
In words: indirect ELISA, coated human PRLR-ECD.

For experiment [2], the target named is T2, human PRLR on the cell surface (T47D human breast cancer cells; BAF3-huPRLR cells) (human, UniProt P16471 25-622).
T2 construct: whole, on cells; Used for both T47D (endogenous) and BAF3-huPRLR (stably overexpressing) cells; also called PRLR antigen on the surface of the T47D cell
T2 sequence (looked up): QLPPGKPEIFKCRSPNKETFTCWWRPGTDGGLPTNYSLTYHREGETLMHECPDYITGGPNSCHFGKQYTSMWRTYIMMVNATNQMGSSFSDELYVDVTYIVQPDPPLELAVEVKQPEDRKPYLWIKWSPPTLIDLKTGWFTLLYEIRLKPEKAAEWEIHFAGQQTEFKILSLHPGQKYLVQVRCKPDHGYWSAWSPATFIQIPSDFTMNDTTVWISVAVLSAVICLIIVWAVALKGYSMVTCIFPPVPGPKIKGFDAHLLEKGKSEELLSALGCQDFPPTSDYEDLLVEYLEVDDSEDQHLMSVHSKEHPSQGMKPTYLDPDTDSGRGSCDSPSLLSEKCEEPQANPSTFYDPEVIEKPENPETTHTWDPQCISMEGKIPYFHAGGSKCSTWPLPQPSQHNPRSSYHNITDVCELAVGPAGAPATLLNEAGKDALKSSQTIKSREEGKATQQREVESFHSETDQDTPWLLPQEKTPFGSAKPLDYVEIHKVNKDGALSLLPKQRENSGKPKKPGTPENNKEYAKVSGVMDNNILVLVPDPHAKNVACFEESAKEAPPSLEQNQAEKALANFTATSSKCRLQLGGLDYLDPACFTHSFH
In words: flow cytometry on T47D cells. The method, then: In this experiment, a human mammary ductal carcinoma cell T47D was used as a target cell, and SPGA02-260 was used as a primary antibody. SPGA02-260 was serially diluted from 20 μg/mL in six gradients according to a 6-fold gradient. An antibody diluted with a 100 μL gradient and 100 μL of a T47D cell were incubated for 30 min at room temperature (The cell was suspended in 100 μL of an RPMI-1640 serum-free medium (purchased from Gibco, item No.: 61870036). The maximum working concentration of a monoclonal antibody was 10 μg/mL). The cell was washed twice with PBS to remove unbound SPGA02-260. Then, the cell was incubated with 50 μL of anti-murine fluorescent secondary antibody containing 5 μg/mL Alexa Fluor 488 label (purchased from Thermo and Invitrogen, item No.: A11001) at 4° C. for 40 min under light protection. The cell was washed twice with PBS to remove an unbound secondary antibody. Finally, the cell was resuspended in 100 μL of PBS. The binding affinity of SPGA02-260 to the cells was determined by a flow cytometry (purchased from Beckman, model: CytoFLEX). Data obtained were fitted and analyzed by GraphPad Prism6 software.
A general note: In flow cytometry, cells or beads pass a laser one at a time.

Experiment [3] has as its target T3, mouse PRLR protein (Beijing Sinobiological, item No. 50457-M08H) (mouse, UniProt Q08501 20-229).
T3 construct: Bought; also called murine-derived PRLR-ECD
T3 sequence (looked up): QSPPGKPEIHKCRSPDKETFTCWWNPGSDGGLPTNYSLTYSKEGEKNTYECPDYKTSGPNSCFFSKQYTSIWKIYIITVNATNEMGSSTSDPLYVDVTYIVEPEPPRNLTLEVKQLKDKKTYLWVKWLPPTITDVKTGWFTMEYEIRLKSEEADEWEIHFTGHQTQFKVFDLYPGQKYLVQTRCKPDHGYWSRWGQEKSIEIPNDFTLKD
In words: indirect ELISA, coated mouse PRLR protein. The method, then:
A mouse PRLR protein (purchased from Beijing Sinobiological Company, item No. 50457-M08H), i.e., mouse PRLR, was coated in a 96-well ELISA plate according to 0.5 μg/well. The cross-reactivity of SPGA02-ch18, and SPGA02-ch260 to the mouse PRLR was determined. Other specific experimental methods were referred to Embodiment 8.
On the technique in general: ELISA stands for enzyme-linked immunosorbent assay.

Experiment [4] concerns the target T1, recombinant human PRLR-ECD protein …. Nature of the experiment: indirect ELISA, coated human PRLR-ECD 0.5 µg/mL. As for the experimental part: An indirect enzyme-linked immunosorbent assay was used to determine the binding ability of an murine-derived antibody to human PRLR as follows: diluting a recombinant human PRLR-ECD protein to 0.5 μg/mL with a coating solution (a phosphate coating buffer, pH 7.4), adding a solution to an enzyme-labeled plate with 100 μL/well, and coating the plate at 4° C. overnight. The plate was washed once with PBST. 300 μL/well of blocking solution (1% BSA-PBST) was added. The plate was incubated at 37° C. for 2 h and then washed three times with PBST. The purified antibody was diluted to 1 μg/mL with 1% BSA-PBST. After a solution was diluted with 1:3 gradient, the enzyme-labeled plate was added with 100 μL/well, and incubated at 37° C. for 1 h. The plate was washed with PBST 3 times. A HRP-labeled goat anti-mouse IgG secondary antibody (purchased from Abcam, item No.: ab6789) was added and incubate at 37° C. for 30 min. After the plate was washed 3 times with PBST, residual droplets were patted to be dry as much as possible with a blotting paper. 100 μL of TMB (purchased from KPL, item No.: 52-00-03) was added to each well, placed at room temperature (20±5° C.) and protected from light for 5 min. […] An OD value at 450 nm of an enzyme-labeled instrument was read to analyze the binding ability of the antibody to be tested to a target antigen PRLR-His.

The target of experiment [5] is T4, PRLR-ECD Fibronectin type-III 2 polypeptide 7 (189-208) (human, N-terminal biotin (bio-)).
T4 peptide: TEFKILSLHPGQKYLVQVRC
In words: peptide ELISA.

The target of experiment [6] is T2, human PRLR on the cell surface (T47D …). In words: cell-based or functional assay.

B1: chimeric antibody SPGA02-ch260 (antibody, human IgG1, kappa, V domains shown)
VH: QVQLKESGPGLVAPSQSLSITCTVSGFSLTRNGVSWVRQPPGKGLEWLGIIWGDGSTNYHSALISRLSISKDNSKSQVFLKLNSLQTDDTATYYCAKEGLYYYGRYFDVWGAGTTVTVSS
VL: DIVMTQSHKFMSTSVGDRVSITCKASQDVGSAVAWYQQKPGQSPKVLIYWASTRHTGVPDRFTGSGSGTDFTLTISNVQSEDLADYFCQQYSNYPLTFGGGTKLEIRR
notes: Expressed in Expi293F cells; also called SPGA01-ch260
For the molecule B1, the EC50 in experiment [1] is 0.0129 µg/mL and 0.09 nM; in experiment [2] it was 0.21 nM and 0.031 µg/mL; in experiment [3], 0.297 µg/mL.

B2: murine-derived anti-human PRLR monoclonal antibody SPGA02-260 (antibody, V domains shown)
VH: B1 VH
VL: DIVMTQSHKFMSTSVGDRVSITCKASQDVGSAVAWYQQKPGQSPKVLIYWASTRHTGVPDRFTGSGSGTDFTLTISNVQSEDLADYFCQQYSNYPLTFGGGTKLEIR
notes: Mouse monoclonal antibody purified from hybridoma supernatant by protein A; also called SPHA02-260
With B2, the concentration giving a half-maximal response (EC50) was 0.0209 µg/mL and 0.14 nM in experiment [4]; 0.026 µg/mL and 0.17 nM in experiment [2]. Further, the binding result in experiment [5] was “binds”.

B3: humanized monoclonal antibody SPGA02-hu260 (antibody, human IgG1, kappa, V domains shown)
VH: QVQLQESGPGLVKPSETLSLTCTVSGFSLTRNGVSWIRQPPGKGLEWVGVIWGDGSTNYNSAFMSRVTISVDTSKNQVSLKLSSVTAADTAVYYCAKEGLYYYGRYFDVWGQGTTVTVSS
VL: DIQMTQSPSSLSASVGDRVTITCRASQDVGSALAWYQQKPGKVPKLLIYWASTRHTGVPSRFSGSGSGTDFTLTISSLQPEDVATYYCQQYSNYPLTFGGGTKLEIKR
notes: Expressed in Expi-293F cells
As to B3, the EC50 in experiment [1] was 0.00898 µg/mL and 0.06 nM. Moreover, the “IC50 of inhibition of growth of BAF3-huPRLR cells (CCK8, 72 h)” value in experiment [6] is 8.28 ng/ml and 0.06 nM.

One may read the EC50 as the concentration giving half of the maximal effect.
